Laboratory results from US20230192890A1.

T1: Ala mutant SEQ ID NO: 27 (human)
T1 sequence (peptide): AENMDDQWMQDEMEIGY

T2: Ala mutant SEQ ID NO: 28 (human)
T2 sequence (peptide): EANMDDQWMQDEMEIGY

T3: Ala mutant SEQ ID NO: 29 (human)
T3 sequence (peptide): EEAMDDQWMQDEMEIGY

T4: Ala mutant SEQ ID NO: 30 (human)
T4 sequence (peptide): EENADDQWMQDEMEIGY

T5: Ala mutant SEQ ID NO: 31 (human)
T5 sequence (peptide): EENMADQWMQDEMEIGY

T6: Ala mutant SEQ ID NO: 33 (human)
T6 sequence (peptide): EENMDDAWMQDEMEIGY

T7: Ala mutant SEQ ID NO: 36 (human)
T7 sequence (peptide): EENMDDQWMADEMEIGY

T8: Ala mutant SEQ ID NO: 37 (human)
T8 sequence (peptide): EENMDDQWMQAEMEIGY

T9: Ala mutant SEQ ID NO: 38 (human)
T9 sequence (peptide): EENMDDQWMQDAMEIGY

T10: Ala mutant SEQ ID NO: 39 (human)
T10 sequence (peptide): EENMDDQWMQDEAEIGY

T11: Ala mutant SEQ ID NO: 40 (human)
T11 sequence (peptide): EENMDDQWMQDEMAIGY

T12: Ala mutant SEQ ID NO: 41 (human)
T12 sequence (peptide): EENMDDQWMQDEMEAGY

T13: Ala mutant SEQ ID NO: 42 (human)
T13 sequence (peptide): EENMDDQWMQDEMEIAY

T14: Ala mutant SEQ ID NO: 43 (human)
T14 sequence (peptide): EENMDDQWMQDEMEIGA

T15: Ala mutant having 3-amino acid substitution, SEQ ID NO: 44 (human)
T15 sequence (peptide): AAAMDDQWMQDEMEIGY

T16: Ala mutant having 3-amino acid substitution, SEQ ID NO: 47 (human)
T16 sequence (peptide): EENMDDQWMAAAMEIGY

T17: Ala mutant having 3-amino acid substitution, SEQ ID NO: 48 (human)
T17 sequence (peptide): EENMDDQWMQDEAAAGY

T18: Ala mutant having 3-amino acid substitution, SEQ ID NO: 49 (human)
T18 sequence (peptide): EENMDDQWMQDEMEIAA

T19: TA0096 (peptide antigen corresponding to positions 340 to 356 of PAD4) (human)
T19 sequence (peptide): EENMDDQWMQDEMEIGY

T20: Ala mutant SEQ ID NO: 32 (human)
T20 sequence (peptide): EENMDAQWMQDEMEIGY


What was measured:
[1] = target: T1, Ala mutant SEQ ID NO: 27 (human); assay: ELISA, peptide on plate (10 ug/mL)
[2] = target: T2, Ala mutant SEQ ID NO: 28 (human); assay: ELISA, peptide on plate (10 ug/mL)
[3] = target: T3, Ala mutant SEQ ID NO: 29 (human); assay: ELISA, peptide on plate (10 ug/mL)
[4] = target: T4, Ala mutant SEQ ID NO: 30 (human); assay: ELISA, peptide on plate (10 ug/mL)
[5] = target: T5, Ala mutant SEQ ID NO: 31 (human); assay: ELISA, peptide on plate (10 ug/mL)
[6] = target: T6, Ala mutant SEQ ID NO: 33 (human); assay: ELISA, peptide on plate (10 ug/mL)
[7] = target: T7, Ala mutant SEQ ID NO: 36 (human); assay: ELISA, peptide on plate (10 ug/mL)
[8] = target: T8, Ala mutant SEQ ID NO: 37 (human); assay: ELISA, peptide on plate (10 ug/mL)
[9] = target: T9, Ala mutant SEQ ID NO: 38 (human); assay: ELISA, peptide on plate (10 ug/mL)
[10] = target: T10, Ala mutant SEQ ID NO: 39 (human); assay: ELISA, peptide on plate (10 ug/mL)
[11] = target: T11, Ala mutant SEQ ID NO: 40 (human); assay: ELISA, peptide on plate (10 ug/mL)
[12] = target: T12, Ala mutant SEQ ID NO: 41 (human); assay: ELISA, peptide on plate (10 ug/mL)
[13] = target: T13, Ala mutant SEQ ID NO: 42 (human); assay: ELISA, peptide on plate (10 ug/mL)
[14] = target: T14, Ala mutant SEQ ID NO: 43 (human); assay: ELISA, peptide on plate (10 ug/mL)
[15] = target: T15, Ala mutant having 3-amino acid substitution, SEQ ID NO: 44 (human); assay: ELISA, peptide on plate (10 ug/mL)
[16] = target: T16, Ala mutant having 3-amino acid substitution, SEQ ID NO: 47 (human); assay: ELISA, peptide on plate (10 ug/mL)
[17] = target: T17, Ala mutant having 3-amino acid substitution, SEQ ID NO: 48 (human); assay: ELISA, peptide on plate (10 ug/mL)
[18] = target: T18, Ala mutant having 3-amino acid substitution, SEQ ID NO: 49 (human); assay: ELISA, peptide on plate (10 ug/mL)
[19] = target: T19, TA0096 (peptide antigen corresponding to positions 340 to 356 of PAD4) (human); assay: ELISA, peptide on plate (10 ug/mL)
[20] = target: full-length recombinant mouse PAD4 (mouse) (UniProt Q9Z183); assay: ELISA, mouse PAD4 on plate, antibody 1 ug/mL
[21] = target: full-length recombinant mouse PAD4 (mouse) (UniProt Q9Z183); assay: ELISA, mouse PAD4 on plate, antibody 0.25 ug/mL
[22] = target: full-length recombinant mouse PAD4 (mouse) (UniProt Q9Z183); assay: ELISA, mouse PAD4 on plate, antibody 0.0625 ug/mL
[23] = target: full-length recombinant mouse PAD4 (mouse) (UniProt Q9Z183); assay: ELISA, mouse PAD4 on plate, antibody 0.015625 ug/mL
[24] = target: full-length recombinant mouse PAD4 (mouse) (UniProt Q9Z183); assay: ELISA, mouse PAD4 on plate, antibody 0.0002441 ug/mL
[25] = target: full-length recombinant mouse PAD4 (mouse) (UniProt Q9Z183); assay: ELISA, mouse PAD4 on plate, antibody 0.0009766 ug/mL
[26] = target: full-length recombinant mouse PAD4 (mouse) (UniProt Q9Z183); assay: ELISA, mouse PAD4 on plate, antibody 0.0039063 ug/mL
[27] = target: full-length recombinant mouse PAD4 (mouse) (UniProt Q9Z183); assay: ELISA, mouse PAD4 on plate, antibody 6.104E-05 ug/mL
[28] = target: T20, Ala mutant SEQ ID NO: 32 (human); assay: ELISA, peptide on plate (10 ug/mL)

Chain of full-length recombinant mouse PAD4 (mouse) (Q9Z183 whole entry): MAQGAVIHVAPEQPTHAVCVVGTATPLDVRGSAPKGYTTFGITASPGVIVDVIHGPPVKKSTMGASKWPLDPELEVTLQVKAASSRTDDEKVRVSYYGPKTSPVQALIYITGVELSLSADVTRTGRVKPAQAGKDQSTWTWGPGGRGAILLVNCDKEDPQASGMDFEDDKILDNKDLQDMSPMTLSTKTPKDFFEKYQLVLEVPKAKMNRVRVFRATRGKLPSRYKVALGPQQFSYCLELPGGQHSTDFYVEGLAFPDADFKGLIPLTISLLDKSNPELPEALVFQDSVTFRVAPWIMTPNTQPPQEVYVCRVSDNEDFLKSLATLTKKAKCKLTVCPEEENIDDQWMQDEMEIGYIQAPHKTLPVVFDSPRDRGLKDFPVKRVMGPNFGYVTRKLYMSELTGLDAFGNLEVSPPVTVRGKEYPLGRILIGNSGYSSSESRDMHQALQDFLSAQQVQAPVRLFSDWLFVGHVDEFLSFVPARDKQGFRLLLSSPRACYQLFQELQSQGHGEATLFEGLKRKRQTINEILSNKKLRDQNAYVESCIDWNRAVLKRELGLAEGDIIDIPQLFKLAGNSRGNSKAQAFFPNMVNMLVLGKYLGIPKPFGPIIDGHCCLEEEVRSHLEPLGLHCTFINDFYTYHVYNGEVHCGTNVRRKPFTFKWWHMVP

| absorbance 490 nm/630 nm [1] [OD] | absorbance 490 nm/630 nm [2] [OD] | absorbance 490 nm/630 nm [3] [OD] | absorbance 490 nm/630 nm [4] [OD] | absorbance 490 nm/630 nm [5] [OD] | absorbance 490 nm/630 nm [6] [OD] | absorbance 490 nm/630 nm [7] [OD] | absorbance 490 nm/630 nm [8] [OD] | absorbance 490 nm/630 nm [9] [OD] | absorbance 490 nm/630 nm [10] [OD] | absorbance 490 nm/630 nm [11] [OD] | absorbance 490 nm/630 nm [12] [OD] | absorbance 490 nm/630 nm [13] [OD] | absorbance 490 nm/630 nm [14] [OD] | absorbance 490 nm/630 nm [15] [OD] | absorbance 490 nm/630 nm [16] [OD] | absorbance 490 nm/630 nm [17] [OD] | absorbance 490 nm/630 nm [18] [OD] | absorbance 490 nm/630 nm [19] [OD] | absorbance 490 nm/630 nm [20] [OD] | also measured | Binder |
| --- | --- | --- | --- | --- | --- | --- | --- | --- | --- | --- | --- | --- | --- | --- | --- | --- | --- | --- | --- | --- | --- |
| 1.9 | 1.95 | 1.9 | 1.95 | 0.462 | 1.87 | 1.87 | 1.86 | 1.99 | 1.81 | 1.86 | 1.83 | 1.85 | 1.87 | 1.9 | 1.67 | 1.87 | 1.86 | 1.82 | 2.3 | absorbance 490 nm/630 nm [21]: 2.31 OD; absorbance 490 nm/630 nm [22]: 2.29 OD; absorbance 490 nm/630 nm [23]: 2.26 OD; absorbance 490 nm/630 nm [24]: 0.224 OD; absorbance 490 nm/630 nm [25]: 0.55 OD; absorbance 490 nm/630 nm [26]: 1.41 OD; absorbance 490 nm/630 nm [27]: 0.103 OD | H7 (antibody, IgG1, V domains shown) VH: AVTLDESGGGLQTPGGALSLVCKASGFTFSTYAMGWMRQAPGKGLEYVAAIRNDGSWTGYGAAVKGRATILRDNGQSTVRLQLSNLRAEDTGTYYCAKYTGSSGGSIGAWGHGTEVIVS VL: ASTQPSSVSANPGGTVEITCSGGSGRYYYGWYQQKSPGSAPVTVIYSSTHRPSNIPSRFSGSKSGSTATLTITGVQAEDEAVYFCGTADSSSYVFGAGTTLTVL |
| 1.95 | 2 | 2.05 | 2.03 | 1.67 | 2.09 | 1.91 | 1.8 | 1.89 | 1.89 | 1.85 | 1.85 | 1.88 | 1.92 | 1.98 | 1.25 | 1.87 | 1.89 | 1.81 | 2.24 | absorbance 490 nm/630 nm [28]: 0.628 OD; absorbance 490 nm/630 nm [21]: 2.25 OD; absorbance 490 nm/630 nm [22]: 2.24 OD; absorbance 490 nm/630 nm [23]: 2.02 OD; absorbance 490 nm/630 nm [24]: 0.152 OD; absorbance 490 nm/630 nm [25]: 0.386 OD; absorbance 490 nm/630 nm [26]: 1.07 OD; absorbance 490 nm/630 nm [27]: 0.045 OD | A11 (antibody, IgG1, V domains shown) VH: AVTLDESGGGLQTPGGALSLVCKASGFDFSSYGMGWMRQAPGKGLEYVAAIRNDGSWTGYGAAVKGHATISRDNGQSTVRLQLNNLRAEDTGTYYCAKTTGSRGGSIDAWGHGTEVIVS VL: ASTQPSSVSANLGGTVEITCSGGGRYYYGWYQQKSPGSAPVTVIYANDKRPSDIPSRFSGSKSGSTGTLTITGVQAEDEAVYFCGSAETSSYVFGAGTTLTVL |
| 1.89 | 2 | 1.92 | 1.91 | 1.38 | 1.93 | 1.9 | 1.2 | 1.91 | 1.77 | 1.82 | 1.8 | 1.83 | 1.88 | 1.9 | 1.34 | 1.81 | 1.85 | 1.79 | 2.23 | absorbance 490 nm/630 nm [28]: 0.177 OD; absorbance 490 nm/630 nm [21]: 2.23 OD; absorbance 490 nm/630 nm [22]: 2.19 OD; absorbance 490 nm/630 nm [23]: 1.86 OD; absorbance 490 nm/630 nm [24]: 0.122 OD; absorbance 490 nm/630 nm [25]: 0.416 OD; absorbance 490 nm/630 nm [26]: 0.956 OD; absorbance 490 nm/630 nm [27]: 0.051 OD | E9 (antibody, IgG1, V domains shown) VH: AVTLDESGGGLQTPGGTLSLVCKGSGFTFSSYGMGWMRQAPGKGLEYVAAIRNDGSWTGYGSAVKGRATISRDNGQSTVRLQLNNLRAEDTATYYCAKTSGSSGGSVDAWGHGTEVIVS VL: ASTQPSSVSANLGGTVEITCSGGGRYYYGWYQQKSPGSAPVTVIYANDKRPSDIPSRFSGSKSGSTGTLTITGVQAEDEAVYFCGSAETSSYVFGAGTTLTVL |
| 1.91 | 1.99 | 1.95 | 1.92 | 1.77 | 1.98 | 1.85 | 1.85 | 1.92 | 1.83 | 1.86 | 1.87 | 1.87 | 1.87 | 1.92 | 1.73 | 1.85 | 1.88 | 1.87 | 2.27 | absorbance 490 nm/630 nm [21]: 2.27 OD; absorbance 490 nm/630 nm [22]: 2.16 OD; absorbance 490 nm/630 nm [23]: 1.35 OD; absorbance 490 nm/630 nm [24]: 0.071 OD; absorbance 490 nm/630 nm [25]: 0.2 OD; absorbance 490 nm/630 nm [26]: 0.55 OD; absorbance 490 nm/630 nm [27]: 0.044 OD | G6 (antibody, IgG1, V domains shown) VH: AVTLDESGGGLQTPGGALSLVCKASGFTFSSYGMEWVRQAPGKGLEYVAAIRNDGSWTGYGAAVKGRATISRDDGQSTLRLQLNNLRAEDTATYYCAKTTGSSGGSIDAWGHGTEVIVS VL: ASTQPSSVSANLGETVKITCSGGGNYYYGWYQQKSPGSAPVTLIYANDKRPSNIPSRFSGSKSGSTGTLTITGVQAEDEAVYFCGTADTGKYVFGAGTTLTVL |
